# According to the MegaScale stability set (Tsuboyama et al. 2023):
# B1: EEHEE_rd4_0363 (parent)
# chain: VTVDIKGMEYHFDNPEEAKKFAERMAKELGGELKVENGTLKVE
# B2: HEEH_KT_rd6_3632 (parent)
# chain: DAEELIELVERALKEGREIILLGVRITSEEAGKWFIEWIRRFL
# Variants of: B1
# Assay: folding stability dG (cDNA display proteolysis); higher = more stable
# Conditions: PBS, room temperature
row,Variant,folding stability dG [kcal/mol]
1,VTVDIKGMEYHFDNPEEAKKFAERMAKELGGELKVENGTLKLE [V42L],1.74
2,VTVDIKGMEYHFDNPEEAKKFAERMAKELGGELKVENGTLKCE [V42C],1.4
3,VTVDIKGMEYHFDNPEEAKKFAERMAKELGGELKVENGTLKME [V42M],0.942
4,VTVDIKGMEYHFDNPEEAKKFAERMAKELGGELKVENGTLKIE [V42I],2
5,VTVDIKGMEYHFDNPEEAKKFAERMAKELGGELKVENGTLKPE [V42P],0.879
6,VTVDIKGMEYHFDNPEEAKKFAERMAKELGGELKVENGTLKAE [V42A],0.786
7,VTVDIKGMEYHFDNPEEAKKFAERMAKELGGELKVENGTLKTE [V42T],0.943
8,VTVDIKGMEYHFDNPEEAKKFAERMAKELGGELKVENGTLKHE [V42H],0.832
9,VTVDIKGMEYHFDNPEEAKKFAERMAKELGGELKVENGTLKRE [V42R],0.352
10,VTVDIKGMEYHFDNPEEAKKFAERMAKELGGELKVENGTLKDE [V42D],0.806
11,VTVDIKGMEYHFDNPEEAKKFAERMAKELGGELKVENGTLKWE [V42W],1.06
12,VTVDIKGMEYHFDNPEEAKKFAERMAKELGGELKVENGTLKFE [V42F],1.02
13,VTVDIKGMEYHFDNPEEAKKFAERMAKELGGELKVENGTLKGE [V42G],0.841
14,VTVDIKGMEYHFDNPEEAKKFAERMAKELGGELKVENGTLKKE [V42K],0.582
15,VTVDIKGMEYHFDNPEEAKKFAERMAKELGGELKVENGTLKSE [V42S],0.916
16,VTVDIKGMEYHFDNPEEAKKFAERMAKELGGELKVENGTLKQE [V42Q],0.74
17,VTVDIKGMEYHFDNPEEAKKFAERMAKELGGELKVENGTLKNE [V42N],0.799
18,VTVDIKGMEYHFDNPEEAKKFAERMAKELGGELKVENGTLKEE [V42E],0.783
19,VTVDIKGMEYHFDNPEEAKKFAERMAKELGGELKVENGTLKYE [V42Y],0.816
20,VTVDIKGMEYHFDNPEEAKKFAERMAKELGGELKVENGSLKVE [T39S],1.69
21,VTVDIKGMEYHFDNPEEAKKFAERMAKELGGELKVENGLLKVE [T39L],2.13
22,VTVDIKGMEYHFDNPEEAKKFAERMAKELGGELKVENGYLKVE [T39Y],1.95

row,Variant,folding stability dG [kcal/mol]
1,VTVDIKGMEYHFDNPEEAKKFAERMAKELGGELKVENGRLKVE [T39R],2.17
2,VTVDIKGMEYHFDNPEEAKKFAERMAKELGGELKVENGVLKVE [T39V],2.77
3,VTVDIKGMEYHFDNPEEAKKFAERMAKELGGELKVENGQLKVE [T39Q],1.91
4,VTVDIKGMEYHFDNPEEAKKFAERMAKELGGELKVENGPLKVE [T39P],0.866
5,VTVDIKGMEYHFDNPEEAKKFAERMAKELGGELKVENGNLKVE [T39N],1.84
6,VTVDIKGMEYHFDNPEEAKKFAERMAKELGGELKVENGWLKVE [T39W],1.66
7,VTVDIKGMEYHFDNPEEAKKFAERMAKELGGELKVENGMLKVE [T39M],2.24
8,VTVDIKGMEYHFDNPEEAKKFAERMAKELGGELKVENGTQKVE [L40Q],0.884
9,VTVDIKGMEYHFDNPEEAKKFAERMAKELGGELKVENGTIKVE [L40I],2.6
10,VTVDIKGMEYHFDNPEEAKKFAERMAKELGGELKVENGTHKVE [L40H],0.973
11,VTVDIKGMEYHFDNPEEAKKFAERMAKELGGELKVENGTTKVE [L40T],0.992
12,VTVDIKGMEYHFDNPEEAKKFAERMAKELGGELKVENGTPKVE [L40P],0.807
13,VTVDIKGMEYHFDNPEEAKKFAERMAKELGGELKVENGTGKVE [L40G],0.861
14,VTVDIKGMEYHFDNPEEAKKFAERMAKELGGELKVENGTDKVE [L40D],0.757
15,VTVDIKGMEYHFDNPEEAKKFAERMAKELGGELKVENGTMKVE [L40M],1.67
16,VTVDIKGMEYHFDNPEEAKKFAERMAKELGGELKVENGTEKVE [L40E],0.788
17,VTVDIKGMEYHFDNPEEAKKFAERMAKELGGELKVENGTCKVE [L40C],1.47
18,VTVDIKGMEYHFDNPEEAKKFAERMAKELGGELKVENGTAKVE [L40A],0.864
19,VTVDIKGMEYHFDNPEEAKKFAERMAKELGGELKVENGTFKVE [L40F],1.94
20,VTVDIKGMEYHFDNPEEAKKFAERMAKELGGELKVENGTKKVE [L40K],0.532
21,VTVDIKGMEYHFDNPEEAKKFAERMAKELGGELKVENGTNKVE [L40N],0.85
22,VTVDIKGMEYHFDNPEEAKKFAERMAKELGGELKVENGTVKVE [L40V],1.35

row,Variant,folding stability dG [kcal/mol]
1,VTVDIKGMEYHFDNPEEAKKFAERMAKELGGELKVENGTRKVE [L40R],0.347
2,VTVDIKGMEYHFDNPEEAKKFAERMAKELGGELKVENGTSKVE [L40S],0.813
3,VTVDIKGMEYHFDNPEEAKKFAERMAKELGGELKVENGTWKVE [L40W],2.28
4,VTVDIKGMEYHFDNPEEAKKFAERMAKELGGELKVENGTYKVE [L40Y],2.27
5,VTVDIKGMEYHFDNPEEAKKFAERMAKELGGELKVENGTLFVE [K41F],2
6,VTVDIKGMEYHFDNPEEAKKFAERMAKELGGELKVENGTLPVE [K41P],0.852
7,VTVDIKGMEYHFDNPEEAKKFAERMAKELGGELKVENGTLNVE [K41N],0.986
8,VTVDIKGMEYHFDNPEEAKKFAERMAKELGGELKVENGTLTVE [K41T],1.73
9,VTVDIKGMEYHFDNPEEAKKFAERMAKELGGELKVENGTLDVE [K41D],0.86
10,VTVDIKGMEYHFDNPEEAKKFAERMAKELGGELKVENGTLVVE [K41V],2.02
11,VTVDIKGMEYHFDNPEEAKKFAERMAKELGGELKVENGTLGVE [K41G],1.01
12,VTVDIKGMEYHFDNPEEAKKFAERMAKELGGELKVENGTLSVE [K41S],1.45
13,VTVDIKGMEYHFDNPEEAKKFAERMAKELGGELKVENGTLCVE [K41C],1.64
14,VTVDIKGMEYHFDNPEEAKKFAERMAKELGGELKVENGTLAVE [K41A],1.09
15,VTVDIKGMEYHFDNPEEAKKFAERMAKELGGELKVENGTLWVE [K41W],1.65
16,VTVDIKGMEYHFDNPEEAKKFAERMAKELGGELKVENGTLRVE [K41R],2.17
17,VTVDIKGMEYHFDNPEEAKKFAERMAKELGGELKVENGTLLVE [K41L],1.62
18,VTVDIKGMEYHFDNPEEAKKFAERMAKELGGELKVENGTLHVE [K41H],1.61
19,VTVDIKGMEYHFDNPEEAKKFAERMAKELGGELKVENGTLQVE [K41Q],1.24
20,VTVDIKGMEYHFDNPEEAKKFAERMAKELGGELKVENGTLMVE [K41M],1.63
21,VTVDIKGMEYHFDNPEEAKKFAERMAKELGGELKVENGTLYVE [K41Y],1.92
22,VTVDIKGMEYHFDNPEEAKKFAERMAKELGGELKVENGTLIVE [K41I],2.1

row,Variant,folding stability dG [kcal/mol]
1,VTVDIKGMEYHFDNPEEAKKFAERMAKELGGELKVENGTLEVE [K41E],0.957
2,VTVDIKGMEYHFDNPEEAKKFAERMAKELGGELKVENGTLKVH [E43H],2.21
3,VTVDIKGMEYHFDNPEEAKKFAERMAKELGGELKVENGTLKVI [E43I],3.07
4,VTVDIKGMEYHFDNPEEAKKFAERMAKELGGELKVENGTLKVK [E43K],1.89
5,VTVDIKGMEYHFDNPEEAKKFAERMAKELGGELKVENGTLKVM [E43M],2.49
6,VTVDIKGMEYHFDNPEEAKKFAERMAKELGGELKVENGTLKVF [E43F],2.75
7,VTVDIKGMEYHFDNPEEAKKFAERMAKELGGELKVENGTLKVP [E43P],1.16
8,VTVDIKGMEYHFDNPEEAKKFAERMAKELGGELKVENGTLKVY [E43Y],2.91
9,VTVDIKGMEYHFDNPEEAKKFAERMAKELGGELKVENGTLKVR [E43R],2.04
10,VTVDIKGMEYHFDNPEEAKKFAERMAKELGGELKVENGTLKVN [E43N],1.85
11,VTVDIKGMEYHFDNPEEAKKFAERMAKELGGELKVENGTLKVS [E43S],2.11
12,VTVDIKGMEYHFDNPEEAKKFAERMAKELGGELKVENGTLKVG [E43G],1.91
13,VTVDIKGMEYHFDNPEEAKKFAERMAKELGGELKVENGTLKVL [E43L],2.66
14,VTVDIKGMEYHFDNPEEAKKFAERMAKELGGELKVENGTLKVA [E43A],1.94
15,VTVDIKGMEYHFDNPEEAKKFAERMAKELGGELKVENGTLKVV [E43V],3.14
16,VTVDIKGMEYHFDNPEEAKKFAERMAKELGGELKVENGTLKVC [E43C],2.81
17,VTVDIKGMEYHFDNPEEAKKFAERMAKELGGELKVENGTLKVW [E43W],2.64
18,VTVDIKGMEYHFDNPEEAKKFAERMAKELGGELKVENGTLKVD [E43D],1.91
19,VTVDIKGMEYHFDNPEEAKKFAERMAKELGGELKVENGTLKVT [E43T],2.38
20,VTVDIKGMEYHFDNPEEAKKFAERMAKELGGELKVENGTLKVQ [E43Q],2.07

# Variants of: B2
# Assay: as above
# Conditions: PBS, room temperature
row,Variant,folding stability dG [kcal/mol]
1,DREELIELVERALKEGREIILLGVRITSEEAGKWFIEWIRRFL [A2R],3.54
2,DGEELIELVERALKEGREIILLGVRITSEEAGKWFIEWIRRFL [A2G],3.42
3,DKEELIELVERALKEGREIILLGVRITSEEAGKWFIEWIRRFL [A2K],3.5
4,DFEELIELVERALKEGREIILLGVRITSEEAGKWFIEWIRRFL [A2F],4.2
5,DSEELIELVERALKEGREIILLGVRITSEEAGKWFIEWIRRFL [A2S],3.42
6,DHEELIELVERALKEGREIILLGVRITSEEAGKWFIEWIRRFL [A2H],3.66
7,DLEELIELVERALKEGREIILLGVRITSEEAGKWFIEWIRRFL [A2L],4.31
8,DPEELIELVERALKEGREIILLGVRITSEEAGKWFIEWIRRFL [A2P],3.65
9,DMEELIELVERALKEGREIILLGVRITSEEAGKWFIEWIRRFL [A2M],3.92
10,DIEELIELVERALKEGREIILLGVRITSEEAGKWFIEWIRRFL [A2I],4.2
11,DQEELIELVERALKEGREIILLGVRITSEEAGKWFIEWIRRFL [A2Q],3.55
12,DNEELIELVERALKEGREIILLGVRITSEEAGKWFIEWIRRFL [A2N],3.4
13,DEEELIELVERALKEGREIILLGVRITSEEAGKWFIEWIRRFL [A2E],3.44
14,DDEELIELVERALKEGREIILLGVRITSEEAGKWFIEWIRRFL [A2D],3.4
15,PAEELIELVERALKEGREIILLGVRITSEEAGKWFIEWIRRFL [D1P],3.89
16,GAEELIELVERALKEGREIILLGVRITSEEAGKWFIEWIRRFL [D1G],3.9

row,Variant,folding stability dG [kcal/mol]
1,RAEELIELVERALKEGREIILLGVRITSEEAGKWFIEWIRRFL [D1R],4.12
2,LAEELIELVERALKEGREIILLGVRITSEEAGKWFIEWIRRFL [D1L],4.31
3,HAEELIELVERALKEGREIILLGVRITSEEAGKWFIEWIRRFL [D1H],4.04
4,MAEELIELVERALKEGREIILLGVRITSEEAGKWFIEWIRRFL [D1M],4.11
5,NAEELIELVERALKEGREIILLGVRITSEEAGKWFIEWIRRFL [D1N],3.96
6,IAEELIELVERALKEGREIILLGVRITSEEAGKWFIEWIRRFL [D1I],4.2
7,YAEELIELVERALKEGREIILLGVRITSEEAGKWFIEWIRRFL [D1Y],4.26
8,QAEELIELVERALKEGREIILLGVRITSEEAGKWFIEWIRRFL [D1Q],3.93
9,SAEELIELVERALKEGREIILLGVRITSEEAGKWFIEWIRRFL [D1S],3.98
10,EAEELIELVERALKEGREIILLGVRITSEEAGKWFIEWIRRFL [D1E],3.63
11,AAEELIELVERALKEGREIILLGVRITSEEAGKWFIEWIRRFL [D1A],3.97
12,KAEELIELVERALKEGREIILLGVRITSEEAGKWFIEWIRRFL [D1K],4.04
13,FAEELIELVERALKEGREIILLGVRITSEEAGKWFIEWIRRFL [D1F],4.2
14,WAEELIELVERALKEGREIILLGVRITSEEAGKWFIEWIRRFL [D1W],4.64
15,VAEELIELVERALKEGREIILLGVRITSEEAGKWFIEWIRRFL [D1V],4.07
16,TAEELIELVERALKEGREIILLGVRITSEEAGKWFIEWIRRFL [D1T],4
